Results: article PMC11962071 (Nature Communications, 2025)

Tests used:
[1] = biological target: Drosophila melanogaster calmodulin (dCaM), recombinant (Drosophila melanogaster, UniProt P62152 1-149); assay: ITC
[2] = biological target: Mus musculus calmodulin (mCaM), recombinant (Mus musculus, UniProt P0DP27 1-149); assay: crystal structure

B1: RDGC IQ (aa 1-25) I12E (domain or fragment)
chain: MDENAIRAAIFEQKWYRRHQARREM
How did the “fold decrease in affinity against the wild type” value [1] turn out when B1 was run?
The value was 236 fold.

B2: mPPEF2 IQ (aa 22-39) (peptide)
chain: AAALIQRWYRRYMARLEM
Does B2 bind [2]?
Result: binds
